Assay results reported in paper PMC12051234, “NrdR in Streptococcus and Listeria spp.: DNA Helix Phase Dependence of the Bacterial Ribonucleotide Reductase Repressor” (Molecular Microbiology, 2025).

Molecular target: T1, EcoNrdR (Escherichia coli) (UniProt P0A8D0)
T1 sequence: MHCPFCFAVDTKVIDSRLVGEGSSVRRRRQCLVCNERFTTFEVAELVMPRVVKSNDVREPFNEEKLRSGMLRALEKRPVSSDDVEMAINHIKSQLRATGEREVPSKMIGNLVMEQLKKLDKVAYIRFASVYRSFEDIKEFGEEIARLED
Assay: MST
Conditions: temperature not stated. Lmo: 25 mM Bis-Tris propane pH 6.5, 100 mM KCl, 5 mM MgCl2, 5% glycerol, 1 mM DTT, 0.05% Tween 20, one nucleotide 1 mM or two at 0.

ACTATTTGCTATATATTGTGTGGTTGAATCTTTTTTCAACTACATCTAGTATCTCTG (double strand) [Eco nrdHIEF wild type]
Kd: 0.13 µM
